Reference: US20190170753A1

How the values were obtained:
[1] = target: Mut1T110N biotin labeled HCV core peptide (hepatitis C virus); assay: capture EIA; Ab 31.25 ng/mL; bt-peptide 500 ng/mL
[2] = target: Mut6T110S biotin labeled HCV core peptide (hepatitis C virus); assay: capture EIA; Ab 31.25 ng/mL; bt-peptide 500 ng/mL
[3] = target: 92-133 biotin labeled HCV core peptide (hepatitis C virus) (UniProt Q9WMX2); assay: capture EIA; Ab 31.25 ng/mL; bt-peptide 500 ng/mL
[4] = target: C113T109N biotin labeled HCV core peptide (hepatitis C virus); assay: capture EIA; Ab 31.25 ng/mL; bt-peptide 500 ng/mL
[5] = target: Mut1T110N biotin labeled HCV core peptide (hepatitis C virus); assay: capture EIA; Ab 3.906 ng/mL; bt-peptide 500 ng/mL
[6] = target: Mut6T110S biotin labeled HCV core peptide (hepatitis C virus); assay: capture EIA; Ab 3.906 ng/mL; bt-peptide 500 ng/mL
[7] = target: 92-133 biotin labeled HCV core peptide (hepatitis C virus) (UniProt Q9WMX2); assay: capture EIA; Ab 3.906 ng/mL; bt-peptide 500 ng/mL
[8] = target: C113T109N biotin labeled HCV core peptide (hepatitis C virus); assay: capture EIA; Ab 3.906 ng/mL; bt-peptide 500 ng/mL
[9] = target: Mut1T110N biotin labeled HCV core peptide (hepatitis C virus); assay: capture EIA; Ab 1.953 ng/mL; bt-peptide 500 ng/mL
[10] = target: Mut6T110S biotin labeled HCV core peptide (hepatitis C virus); assay: capture EIA; Ab 1.953 ng/mL; bt-peptide 500 ng/mL
[11] = target: 92-133 biotin labeled HCV core peptide (hepatitis C virus) (UniProt Q9WMX2); assay: capture EIA; Ab 1.953 ng/mL; bt-peptide 500 ng/mL
[12] = target: C113T109N biotin labeled HCV core peptide (hepatitis C virus); assay: capture EIA; Ab 1.953 ng/mL; bt-peptide 500 ng/mL
[13] = target: Mut1T110N biotin labeled HCV core peptide (hepatitis C virus); assay: capture EIA; Ab 15.625 ng/mL; bt-peptide 500 ng/mL
[14] = target: Mut6T110S biotin labeled HCV core peptide (hepatitis C virus); assay: capture EIA; Ab 15.625 ng/mL; bt-peptide 500 ng/mL
[15] = target: 92-133 biotin labeled HCV core peptide (hepatitis C virus) (UniProt Q9WMX2); assay: capture EIA; Ab 15.625 ng/mL; bt-peptide 500 ng/mL
[16] = target: C113T109N biotin labeled HCV core peptide (hepatitis C virus); assay: capture EIA; Ab 15.625 ng/mL; bt-peptide 500 ng/mL
[17] = target: Mut1T110N biotin labeled HCV core peptide (hepatitis C virus); assay: capture EIA; Ab 7.813 ng/mL; bt-peptide 500 ng/mL
[18] = target: Mut6T110S biotin labeled HCV core peptide (hepatitis C virus); assay: capture EIA; Ab 7.813 ng/mL; bt-peptide 500 ng/mL
[19] = target: 92-133 biotin labeled HCV core peptide (hepatitis C virus) (UniProt Q9WMX2); assay: capture EIA; Ab 7.813 ng/mL; bt-peptide 500 ng/mL
[20] = target: C113T109N biotin labeled HCV core peptide (hepatitis C virus); assay: capture EIA; Ab 7.813 ng/mL; bt-peptide 500 ng/mL
[21] = target: Mut1T110N biotin labeled HCV core peptide (hepatitis C virus); assay: capture EIA; Ab 500 ng/mL; bt-peptide 500 ng/mL
[22] = target: Mut6T110S biotin labeled HCV core peptide (hepatitis C virus); assay: capture EIA; Ab 500 ng/mL; bt-peptide 500 ng/mL
[23] = target: 92-133 biotin labeled HCV core peptide (hepatitis C virus) (UniProt Q9WMX2); assay: capture EIA; Ab 500 ng/mL; bt-peptide 500 ng/mL
[24] = target: C113T109N biotin labeled HCV core peptide (hepatitis C virus); assay: capture EIA; Ab 500 ng/mL; bt-peptide 500 ng/mL
[25] = target: Mut1T110N biotin labeled HCV core peptide (hepatitis C virus); assay: capture EIA; Ab 1000 ng/mL; bt-peptide 500 ng/mL
[26] = target: Mut6T110S biotin labeled HCV core peptide (hepatitis C virus); assay: capture EIA; Ab 1000 ng/mL; bt-peptide 500 ng/mL
[27] = target: 92-133 biotin labeled HCV core peptide (hepatitis C virus) (UniProt Q9WMX2); assay: capture EIA; Ab 1000 ng/mL; bt-peptide 500 ng/mL
[28] = target: C113T109N biotin labeled HCV core peptide (hepatitis C virus); assay: capture EIA; Ab 1000 ng/mL; bt-peptide 500 ng/mL
[29] = target: Mut1T110N biotin labeled HCV core peptide (hepatitis C virus); assay: capture EIA; Ab 250 ng/mL; bt-peptide 500 ng/mL
[30] = target: Mut6T110S biotin labeled HCV core peptide (hepatitis C virus); assay: capture EIA; Ab 250 ng/mL; bt-peptide 500 ng/mL
[31] = target: 92-133 biotin labeled HCV core peptide (hepatitis C virus) (UniProt Q9WMX2); assay: capture EIA; Ab 250 ng/mL; bt-peptide 500 ng/mL
[32] = target: C113T109N biotin labeled HCV core peptide (hepatitis C virus); assay: capture EIA; Ab 250 ng/mL; bt-peptide 500 ng/mL
[33] = target: Mut1T110N biotin labeled HCV core peptide (hepatitis C virus); assay: capture EIA; Ab 2000 ng/mL; bt-peptide 500 ng/mL
[34] = target: Mut6T110S biotin labeled HCV core peptide (hepatitis C virus); assay: capture EIA; Ab 2000 ng/mL; bt-peptide 500 ng/mL
[35] = target: 92-133 biotin labeled HCV core peptide (hepatitis C virus) (UniProt Q9WMX2); assay: capture EIA; Ab 2000 ng/mL; bt-peptide 500 ng/mL
[36] = target: C113T109N biotin labeled HCV core peptide (hepatitis C virus); assay: capture EIA; Ab 2000 ng/mL; bt-peptide 500 ng/mL
[37] = target: Mut1T110N biotin labeled HCV core peptide (hepatitis C virus); assay: capture EIA; Ab 125 ng/mL; bt-peptide 500 ng/mL
[38] = target: Mut6T110S biotin labeled HCV core peptide (hepatitis C virus); assay: capture EIA; Ab 125 ng/mL; bt-peptide 500 ng/mL
[39] = target: 92-133 biotin labeled HCV core peptide (hepatitis C virus) (UniProt Q9WMX2); assay: capture EIA; Ab 125 ng/mL; bt-peptide 500 ng/mL
[40] = target: C113T109N biotin labeled HCV core peptide (hepatitis C virus); assay: capture EIA; Ab 125 ng/mL; bt-peptide 500 ng/mL
[41] = target: Mut1T110N biotin labeled HCV core peptide (hepatitis C virus); assay: capture EIA; Ab 15.6 ng/mL; bt-peptide 500 ng/mL (summary of Table 7)
[42] = target: Mut6T110S biotin labeled HCV core peptide (hepatitis C virus); assay: as above
[43] = target: 92-133 biotin labeled HCV core peptide (hepatitis C virus) (UniProt Q9WMX2); assay: as above
[44] = target: C113T109N biotin labeled HCV core peptide (hepatitis C virus); assay: as above
[45] = target: Mut1T110N biotin labeled HCV core peptide (hepatitis C virus); assay: capture EIA; Ab 0.977 ng/mL; bt-peptide 500 ng/mL
[46] = target: Mut6T110S biotin labeled HCV core peptide (hepatitis C virus); assay: capture EIA; Ab 0.977 ng/mL; bt-peptide 500 ng/mL
[47] = target: 92-133 biotin labeled HCV core peptide (hepatitis C virus) (UniProt Q9WMX2); assay: capture EIA; Ab 0.977 ng/mL; bt-peptide 500 ng/mL
[48] = target: C113T109N biotin labeled HCV core peptide (hepatitis C virus); assay: capture EIA; Ab 0.977 ng/mL; bt-peptide 500 ng/mL
[49] = target: Mut1T110N biotin labeled HCV core peptide (hepatitis C virus); assay: capture EIA; Ab 62.5 ng/mL; bt-peptide 500 ng/mL
[50] = target: Mut6T110S biotin labeled HCV core peptide (hepatitis C virus); assay: capture EIA; Ab 62.5 ng/mL; bt-peptide 500 ng/mL
[51] = target: 92-133 biotin labeled HCV core peptide (hepatitis C virus) (UniProt Q9WMX2); assay: capture EIA; Ab 62.5 ng/mL; bt-peptide 500 ng/mL
[52] = target: C113T109N biotin labeled HCV core peptide (hepatitis C virus); assay: capture EIA; Ab 62.5 ng/mL; bt-peptide 500 ng/mL

Substance: C11-3 (ABT-4) monoclonal antibody
- signal at 492 nm [1]: 0.107 A492
- signal at 492 nm [2]: 1.54 A492
- signal at 492 nm [3]: 1.55 A492
- signal at 492 nm [4]: 0.16 A492
- signal at 492 nm [5]: 0.079 A492
- signal at 492 nm [6]: 0.227 A492
- signal at 492 nm [7]: 0.183 A492
- signal at 492 nm [8]: 0.0833 A492
- signal at 492 nm [9]: 0.0854 A492
- signal at 492 nm [10]: 0.0964 A492
- signal at 492 nm [11]: 0.134 A492
- signal at 492 nm [12]: 0.114 A492
- signal at 492 nm [13]: 0.11 A492
- signal at 492 nm [14]: 0.807 A492
- signal at 492 nm [15]: 1.01 A492
- signal at 492 nm [16]: 0.116 A492
- signal at 492 nm [17]: 0.0966 A492
- signal at 492 nm [18]: 0.344 A492
- signal at 492 nm [19]: 0.562 A492
- signal at 492 nm [20]: 0.119 A492
- signal at 492 nm [21]: 0.0765 A492
- signal at 492 nm [22]: 2.24 A492
- signal at 492 nm [23]: 1.95 A492
- signal at 492 nm [24]: 0.0882 A492
- signal at 492 nm [25]: 0.0721 A492
- signal at 492 nm [26]: 2.15 A492
- signal at 492 nm [27]: 1.87 A492
- signal at 492 nm [28]: 0.0806 A492
- signal at 492 nm [29]: 0.0857 A492
- signal at 492 nm [30]: 1.83 A492
- signal at 492 nm [31]: 1.68 A492
- signal at 492 nm [32]: 0.0963 A492
- signal at 492 nm [33]: 0.0915 A492
- signal at 492 nm [34]: 1.73 A492
- signal at 492 nm [35]: 1.45 A492
- signal at 492 nm [36]: 0.0707 A492
- signal at 492 nm [37]: 0.127 A492
- signal at 492 nm [38]: 2.02 A492
- signal at 492 nm [39]: 1.83 A492
- signal at 492 nm [40]: 0.147 A492
- signal at 492 nm [41]: 0.11 A492
- signal at 492 nm [42]: 0.807 A492
- signal at 492 nm [43]: 1.01 A492
- signal at 492 nm [44]: 0.116 A492
- signal at 492 nm [45]: 0.0755 A492
- signal at 492 nm [46]: 0.101 A492
- signal at 492 nm [47]: 0.116 A492
- signal at 492 nm [48]: 0.104 A492
- signal at 492 nm [49]: 0.155 A492
- signal at 492 nm [50]: 2.11 A492
- signal at 492 nm [51]: 1.92 A492
- signal at 492 nm [52]: 0.202 A492
